{"source": "paper PMC6616073", "note": "No end group written: not given here.", "data": [{"target": "membrane-bound Torpedo californica nicotinic acetylcholine receptor (Torpedo californica)", "sequence (P02710 25-461 limits assumed, chain 1 of 4)": "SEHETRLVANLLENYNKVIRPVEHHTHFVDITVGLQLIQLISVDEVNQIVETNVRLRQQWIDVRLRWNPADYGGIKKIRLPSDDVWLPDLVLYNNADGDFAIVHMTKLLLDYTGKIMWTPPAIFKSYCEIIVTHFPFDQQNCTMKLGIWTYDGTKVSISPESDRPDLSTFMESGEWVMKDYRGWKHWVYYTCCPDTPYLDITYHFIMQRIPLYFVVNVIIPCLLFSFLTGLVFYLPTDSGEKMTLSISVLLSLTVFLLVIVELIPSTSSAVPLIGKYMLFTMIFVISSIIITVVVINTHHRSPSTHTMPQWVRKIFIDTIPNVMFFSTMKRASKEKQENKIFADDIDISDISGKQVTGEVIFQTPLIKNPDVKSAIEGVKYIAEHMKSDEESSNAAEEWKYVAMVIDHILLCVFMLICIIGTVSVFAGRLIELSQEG", "sequence (P02712 25-493 limits assumed, chain 2 of 4, further chain)": "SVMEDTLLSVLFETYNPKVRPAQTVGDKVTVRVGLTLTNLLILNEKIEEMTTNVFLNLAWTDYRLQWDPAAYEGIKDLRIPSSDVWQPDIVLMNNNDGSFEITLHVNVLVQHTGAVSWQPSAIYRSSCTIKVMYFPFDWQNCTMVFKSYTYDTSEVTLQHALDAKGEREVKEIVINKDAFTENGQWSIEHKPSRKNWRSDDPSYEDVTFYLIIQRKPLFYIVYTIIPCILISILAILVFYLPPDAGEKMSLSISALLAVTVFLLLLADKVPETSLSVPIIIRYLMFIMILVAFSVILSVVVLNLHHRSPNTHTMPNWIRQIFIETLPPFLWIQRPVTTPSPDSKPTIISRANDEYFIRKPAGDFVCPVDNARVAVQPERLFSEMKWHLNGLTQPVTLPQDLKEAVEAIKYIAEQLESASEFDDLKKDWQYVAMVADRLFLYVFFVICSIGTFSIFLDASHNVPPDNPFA", "sequence (P02714 18-506 limits assumed, chain 3 of 4, further chain)": "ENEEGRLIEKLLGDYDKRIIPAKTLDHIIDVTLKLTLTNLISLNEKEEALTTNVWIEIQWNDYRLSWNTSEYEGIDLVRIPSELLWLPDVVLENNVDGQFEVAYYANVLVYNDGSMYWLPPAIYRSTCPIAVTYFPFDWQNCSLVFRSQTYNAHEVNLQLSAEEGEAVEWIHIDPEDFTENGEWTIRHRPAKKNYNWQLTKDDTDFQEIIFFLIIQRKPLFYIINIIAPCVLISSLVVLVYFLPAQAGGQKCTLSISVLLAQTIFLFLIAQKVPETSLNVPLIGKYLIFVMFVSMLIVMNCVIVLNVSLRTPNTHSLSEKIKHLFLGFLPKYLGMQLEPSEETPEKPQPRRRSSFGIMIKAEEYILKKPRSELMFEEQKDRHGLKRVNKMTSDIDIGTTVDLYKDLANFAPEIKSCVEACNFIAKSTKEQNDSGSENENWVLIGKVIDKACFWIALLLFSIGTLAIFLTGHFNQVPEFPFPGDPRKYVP", "sequence (P02718 22-522 limits assumed, chain 4 of 4, further chain)": "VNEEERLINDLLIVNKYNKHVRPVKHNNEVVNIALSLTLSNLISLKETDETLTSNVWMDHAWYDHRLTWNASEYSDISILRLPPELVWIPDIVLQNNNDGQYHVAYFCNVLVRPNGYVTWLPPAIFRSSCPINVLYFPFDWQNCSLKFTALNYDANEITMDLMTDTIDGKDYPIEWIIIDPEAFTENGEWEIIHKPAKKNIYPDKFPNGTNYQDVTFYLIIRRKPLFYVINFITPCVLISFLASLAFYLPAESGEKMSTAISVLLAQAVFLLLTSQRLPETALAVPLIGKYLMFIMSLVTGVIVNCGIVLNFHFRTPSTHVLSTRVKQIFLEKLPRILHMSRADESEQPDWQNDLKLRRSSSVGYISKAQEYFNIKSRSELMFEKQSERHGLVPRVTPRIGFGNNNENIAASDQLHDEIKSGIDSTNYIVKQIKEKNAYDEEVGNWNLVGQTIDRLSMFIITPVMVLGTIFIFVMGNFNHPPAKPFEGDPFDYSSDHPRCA", "assay": "radioligand binding", "units": {"IC50": "µM"}, "values": [{"binder": "CTRTYYTPTRMC (not fully specified (bridges); cysteine pairing not given here)", "note": "[Lynx1 short (3), shorter loop II fragment of human Lynx1 with terminal Cys, disulfide-cyclised]", "IC50": 74.1}, {"binder": "TTRTYYTPTRMKVSK", "note": "[Lynx1 linear (2), synthetic 15-membered loop II fragment of human Lynx1]", "IC50": 13.2}, {"binder": "CTRTYYTPTRMC", "note": "[Lynx1 short linear (4), shorter loop II fragment of human Lynx1 with free terminal Cys]", "IC50": 15.6}, {"binder": "CTTRTYYTPTRMKVSKC (not fully specified (bridges); cysteine pairing not given here)", "IC50": 4.9}]}]}
